Assays:
HuB7H3-Fc = target: T1, HuB7H3-Fc (human, UniProt Q5ZPR3 29-245); assay: sandwich ELISA; dual binding, HuB7H3-Fc coated, NKP30-his detected
T1 chain: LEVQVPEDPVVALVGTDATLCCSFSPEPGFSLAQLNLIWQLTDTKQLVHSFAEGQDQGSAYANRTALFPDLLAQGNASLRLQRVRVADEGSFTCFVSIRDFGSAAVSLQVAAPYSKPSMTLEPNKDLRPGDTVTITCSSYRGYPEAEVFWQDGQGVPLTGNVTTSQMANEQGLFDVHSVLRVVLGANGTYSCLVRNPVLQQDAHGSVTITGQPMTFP

HuB7H3-his = target: T2, HuB7H3-his (human, UniProt Q5ZPR3 29-245); assay: ELISA
T2 chain: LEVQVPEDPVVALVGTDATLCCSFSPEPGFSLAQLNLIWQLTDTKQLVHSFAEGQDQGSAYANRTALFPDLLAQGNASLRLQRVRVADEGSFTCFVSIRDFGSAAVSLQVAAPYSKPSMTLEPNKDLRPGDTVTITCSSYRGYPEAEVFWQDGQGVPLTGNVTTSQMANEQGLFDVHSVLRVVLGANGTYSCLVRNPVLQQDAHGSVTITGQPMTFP

human-NKP30-His = target: T3, human-NKP30-His (human, UniProt O14931 19-138); assay: ELISA
T3 chain: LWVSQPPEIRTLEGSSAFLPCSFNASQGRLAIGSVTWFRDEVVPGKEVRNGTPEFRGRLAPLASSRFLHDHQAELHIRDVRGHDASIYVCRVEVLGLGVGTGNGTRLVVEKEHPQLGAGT

| Binder | EC50 (HuB7H3-Fc) [µg/mL] | EC50 (HuB7H3-his) [µg/mL] | EC50 (human-NKP30-His) [µg/mL] |
| --- | --- | --- | --- |
| constructed antibody D28 (bispecific antibody) heavy: not shown light: DIVMTQSPATLSVTPGDRVSLSCRASQSISDYLHWYQQKSHESPRLLIKYASQSISGIPSRFSGSGSGSDFTLSINSVEPEDVGVYYCQNGHSFPLTFGAGTKLELKRTVAAPSVFIFPPSDEQLKSGTASVVCLLNNFYPREAKVQWKVDNALQSGNSQESVTEQDSKDSTYSLSSTLTLSKADYEKHKVYACEVTHQGLSSPVTKSFNRGEC | 0.445 | – | – |
| constructed antibody A25 (bispecific antibody) heavy: not shown light: DIVMTQSPATLSVTPGDRVSLSCRASQSISDYLHWYQQKSHESPRLLIKYASQSISGIPSRFSGSGSGSDFTLSINSVEPEDVGVYYCQNGHSFPLTFGAGTKLELKRTVAAPSVFIFPPSDEQLKSGTASVVCLLNNFYPREAKVQWKVDNALQSGNSQESVTEQDSKDSTYSLSSTLTLSKADYEKHKVYACEVTHQGLSSPVTKSFNRGEC | 0.19 | 0.0526 | 0.00817 |
| NKP30 monoclonal antibody (antibody, V domains shown) VH: EVQLVESGGGLVQPGGSLRLSCAASGITFSRSVMGWFRQAPGKLRELVAGITSDDNTDYADSVKGRFTISRDNSKNTLYLQMNSLRAEDTAVYYCNILPDSRLGWGQGTLVTVSS | – | – | 0.00258 |
